According to US7501273B2, “Peptidylarginine deiminase 6” (N.V. Organon, priority 2001, dated 2009):

Tested on: Soybean Trypsin Inhibitor (STI)
Test: Determination of PAD6 enzyme activity: citrullination of STI, read out as trypsin activity on a fluorescent substrate
Type: biochemical
Conditions: 0.5 or 1.0 μg GST-PAD6, 0.17 μg STI, 30 minutes at 37° C., 5 mM CaCl2; FIG. 5
Source text: Another example of determining the enzymatic activity of PAD6 makes use of the inactivation of a protein e.g. Soybean Trypsin Inhibitor (STI) (Talcahara, H. et al. 1985, J. Biol. Chem. 260, 8378–8383. When an essential arginine in STI is converted into citrulline it is no longer able to inhibit the proteolytic activity of trypsin. This can be used as the basis for a two-step assay for the determination of PAD activity. The assay consists of two steps. In the first reaction PAD converts the arginine (position 63) in STI into a citrulline inactivating the STI. In the second reaction trypsin and a fluorescent substrate are added and trypsin activity is measured.
FIG. 5 Fluorescence measurement to determine PAD activity. STI (0.17 μg) was pre-incubated in the absence (filled square) or presence of 0.5 μg GST-PAD6 (filled triangle), 1.0 μg GST-PAD6 (open triangle), or 0.1 μg rabbit muscle PAD (open square; Sigma cat. No P1584) respectively. Subsequently, Nα-benzoyl-L-Arginine-7-amido-4-methylcoumarin (100 μM; Sigma cat. No. B7260) and trypsin (0.25 μg) were added, and fluorescence determined.
The activity of the PAD was determined by the formation of citrulline in Soybean Trypsin Inhibitor (STI) as a substrate. […] Therefore, an increased activity of trypsin, as detected with a fluorescent trypsin substrate, indicates PAD activity. […]

B1: PAD6: Recombinant full-length human peptidylarginine deiminase 6 (SEQ ID NO:3) expressed in E. coli as GST fusion protein (protein)
chain: MSFQSIIHLSLDSPVHAVCVLGTEICLDLSGCAPQKCQCFTIHGSGRVLIDVANTVISEKEDATIWWPLSDPTYATVKMTSPSPSVDADKVSVTYYGPNEDAPVGTAVLYLTGIEVSLEVDIYRNGQVEMSSDKQAKKKWIWGPSGWGAILLVNCNPADVGQQLEDKKTKKVIFSEEITNLSQMTLNVQGPSCILKKYRLVLHTSKEESKKARVYWPQKDNSSTFELVLGPDQHAYTLALLGNHLKETFYVEAIAFPSAEFSGLISYSVSLVEESQDPSIPETVLYKDTVVFRVAPCVFIPCTQVPLEVYLCRELQLQGFVDTVTKLSEKSNSQVASVYEDPNRLGRWLQDEMAFCYTQAPHKTTSLILDTPQAADLDEFPMKYSLSPGIGYMIQDTEDHKVASMDSIGNLMVSPPVKVQGKEYPLGRVLIGSSFYPSAEGRAMSKTLRDFLYAQQVQAPVELYSDWLMTGHVDEFMCFIPTDDKNEGKKGFLLLLASPSACYKLFREKQKEGYGDALLFDELRADQLLSNGREAKTIDQLLADESLKKQNEYVEKCIHLNRDILKTELGLVEQDIIEIPQLFCLEKLTNIPSDQQPKRSFARPYFPDLLRMIVMGKNLGIPKPFGPQIKGTCCLEEKICCLLEPLGFKCTFINDFDCYLTEVGDICACANIRRVPFAFKWWKMVP
modifications: left off: a dimerising Fc or GST
PAD activity (increased trypsin activity, fluorescence): could be detected
